The term EC50 denotes the concentration at which the effect is half-maximal.

Where two headings read alike, the source gives them in different places.

The results in this text go back to article PMC8018905.

The target of test [1] is recombinant angiotensin-converting enzyme 2 (ACE2) (UniProt Q9BYF1). The experiment in a line: electrochemical impedance spectroscopy.
The target is the same in test [2]. The experiment in a line: electrochemical impedance spectroscopy. This is another data set of the same source.

Chain of recombinant angiotensin-converting enzyme 2 (ACE2) (Q9BYF1 18-740): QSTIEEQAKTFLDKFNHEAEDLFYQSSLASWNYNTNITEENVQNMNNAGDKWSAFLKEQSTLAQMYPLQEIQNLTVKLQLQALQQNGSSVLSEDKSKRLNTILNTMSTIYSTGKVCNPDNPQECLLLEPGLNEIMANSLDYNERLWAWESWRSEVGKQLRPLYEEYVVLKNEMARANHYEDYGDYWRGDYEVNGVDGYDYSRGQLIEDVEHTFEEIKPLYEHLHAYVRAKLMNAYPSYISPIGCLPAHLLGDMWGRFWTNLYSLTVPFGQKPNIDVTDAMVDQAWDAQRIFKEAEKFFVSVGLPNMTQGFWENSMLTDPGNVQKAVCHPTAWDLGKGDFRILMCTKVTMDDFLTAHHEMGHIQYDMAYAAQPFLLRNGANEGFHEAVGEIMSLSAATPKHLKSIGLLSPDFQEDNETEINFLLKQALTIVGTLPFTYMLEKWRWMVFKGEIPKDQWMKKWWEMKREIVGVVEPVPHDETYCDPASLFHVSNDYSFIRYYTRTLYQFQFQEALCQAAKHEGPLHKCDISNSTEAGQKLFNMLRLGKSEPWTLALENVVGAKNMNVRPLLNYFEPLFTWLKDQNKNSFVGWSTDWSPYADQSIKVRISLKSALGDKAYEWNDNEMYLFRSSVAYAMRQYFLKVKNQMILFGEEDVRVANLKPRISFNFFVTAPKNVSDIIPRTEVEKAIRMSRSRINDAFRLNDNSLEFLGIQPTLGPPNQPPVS

For the substance “recombinant SARS-CoV-2 S-protein receptor-binding domain (from UniProt P0DTC2) (domain or fragment; other documents disagree on this pair)”, the EC50 in test [1] was 1.74 µM; in test [2] it was 5.1 µM.
